Measurements published in patent US11674950B2, “Methods determining and treating cellular resistance to ADP-rtbosylating toxin” (priority 2017, dated 2023).

How the values were obtained:
[1] = test system: CAL1 and THP1 cells; test: Short-term cytotoxicity of azacitidine in parental and SL-401 resistant cells; assay type: cell-based, human
Protocol: Next, it was tested if azacitidine cooperated with tagraxofusp in AML and BPDCN cells. First, given that azacitidine acts as a cytotoxic chemotherapy at higher doses, experiments were performed to determine whether tagraxofusp-resistant cells were more sensitive to short-term treatment, similar to what was described above (FIGS. 6-8).

[2] = test system: BPDCN patient-derived xenografts; assay type: in vivo, mouse; conditions: for time to progression of peripheral blood leukemia burden: two cycles
[3] = test system: DPH1; test: Quantitative RT-PCR and Western blot for DPH1; assay type: cell-based, human
[4] = test system: DPH1 locus; test: Bisulfite pyrosequencing of DPH1 locus CpG sites; assay type: cell-based, human; conditions: azacitidine 300 nM, 2 days on/2 days off over 2 weeks; resistant cells
Protocol: DPH1 expression is known to be regulated by DNA methylation and sensitivity to Pseudomonas exotoxin A was previously shown to be modulated by CpG methylation in the DPH1 locus. To test whether loss of DPH1 is mediated by DNA methylation, bisulfite pyrosequencing of the DPH1 locus in CpG islands (30 individual CpG sites) was performed by EpigenDx analysis (available on the World Wide Web at epigendx.com/d/service/pyrosequencing/) and the % methylated cytosine at each CpG site was quantitated. This analysis was performed in THP1 parental and 2 SL-401 resistant subclones, and CAL1 parental and 2 SL-401 resistant subclones. Data plotted in FIG. 12 are from THP1 cells, and are representative of CAL1. […] Given this finding, it was believed that 5-azacitidine, a DNA methyltransferase inhibitor or “DNA hypomethylating agent” can reverse the aberrant DPH1 hypermethylation and restore DPH1 expression. The parental and resistant cells were also treated with non-cytotoxic, low doses of azacitidine, so called “epigenetic dosing” (300 nM, 2 days on/2 days off) over 2 weeks to determine if the hypermethylation was reversible by DNA methyltransferase inhibition.

[5] = test system: eEF2; test: In vitro ADP-ribosylation assay in cell lysates with biotin-NAD+; assay type: biochemical, human
Protocol: A biochemical assay was next performed to test the ability of tagraxofusp to catalyze ADP-ribosylation in cellular lysates in the presence of exogenous biotin-tagged […] (NAD) as a source of ADP-ribose.
To determine the biochemical mechanism of SL-401 resistance and restoration of sensitivity upon non-cytotoxic treatment with azacitidine, an in vitro ADP-ribosylation assay was developed to perform lysates harvested from human leukemia cells. Briefly, 50 μg of cell lysates were harvested and mixed with 5 uM NAD+-Biotin (R&D Systems; 4670-500-01), in the presence or absence of 100 ng of SL-401 (or DT) in 35 uL of reaction buffer containing 20 mM Tris-HCl pH 7.4, 1 mM EDTA, and 50 mM DTT. The mixture is incubated for 15 minutes at room temperature and then the reaction is halted by boiling in SDS loading buffer. An SDS polyacrylamide gel is run and proteins are transferred to a PVDF membrane as in a Western blot. Protein levels are determined by traditional western blot. ADP-ribosylation of target proteins is detected by streptavidin-HRP (Abcam ab7403). […] Top blot is ADP-ribose, presumably on eEF2 (band is at same position as eEF2 protein detected by antibody); next, are levels of eEF2, DPH1, and beta-actin protein.

[6] = test system: CAL1, SHI1, and THP1 parental and tagraxofusp-resistant cells; test: MTT viability after conventional chemotherapy (cytarabine, vincristine); assay type: cell-based, human; conditions: SL-401 resistant vs parental CAL1, SHI1, THP1
Protocol: CAL1, SHI1, and THP1 parental and tagraxofusp-resistant cells were tested in MTT viability assays after exposure to increasing doses of cytarabine (AraC) or vincristine (VCR).

[7] = rodents and monkeys; cited from earlier work
[8] = test system: mouse models of human leukemia; conditions: in vivo; cited from earlier work
[9] = test system: IL3R (e.g., CD123) positive AML cell lines and primary leukemia cells; conditions: cited from earlier work
[10] = test system: THP1 human AML cells; test: Single cell flow cytometric ADP-ribosylation assay; assay type: cell-based; conditions: resistant vs parental THP1
Protocol: THP1 human AML cells are shown that are parental SL-401 sensitive or SL-401 resistant.
For example, in another embodiment, a flow ADP ribosylation assay may be used to measure the functional activity of the entire diphthamide synthesis pathway (FIG. 20). […] The cells were stained with antibodies (e.g., CD45-APC, CD123-PE) at concentration of 1:100, incubated for 30 min at 4° C., and then washed with FACS buffer 5 minutes. The cells were fixed with 3% paraformaldehyde (PFA), incubated for 20 min at RT, and washed with PBS for 5 minutes. The cells were permeabilized with Saponin (1:10 in H2O, BD Biosciences-“Perm/Wash” solution) for 20 min at 4° C., washed with PBS for 5 minutes, and applied with endogenous Streptavidin block (BD Biosciences) for 20 min at RT. The cells were then washed with PBS for 5 minutes and applied with endogenous Biotin block (BD Biosciences) for 20 min at RT. The cells were then washed with PBS for 5 minutes and applied with protein block for 30 min at RT. The cells were washed twice with FACS buffer. Each wash was for 5 minutes. SL-401/biotin solution was added to the samples and the samples was incubated for 30 min at RT. […] The cells were washed 5 minutes in FACS buffer, resuspended in 300 μl FACS buffer and level of the ADP was detected with the flow assay.

[11] = test system: THP1 human AML cells; test: In situ histochemical ADP-ribosylation assay; assay type: cell-based; conditions: resistant vs parental THP1
[12] = test system: parental or tagraxofusp-resistant CAL1 cells; test: Confocal microscopy of internalization of fluorescently tagged SL-401; assay type: cell-based, human; conditions: 30-60 minutes after exposure, resistant vs parental cells
[13] = 14 days from initiation of treatment, vs vehicle

Nc1ncn([C@@H]2O[C@H](CO)[C@@H](O)[C@H]2O)c(=O)n1 [azacitidine, 5-azacytidine]
azacitidine dose response, resistant vs parental ([1]; CAL1 parental and 3 SL-401 resistant subclones): increased sensitivity in resistant cells
azacitidine cytotoxicity, resistant vs parental ([1]; THP1, short-term (72 hour), cytotoxic doses): more sensitive to cytotoxic doses of azacitidine than parental cells
time to progression of peripheral blood leukemia burden ([2]; four-arm study): prolonged the time to progression of peripheral blood leukemia burden
DPH1 protein levels after azacitidine ([3]; Western blot, resistant THP1 clones): partially or fully restored
DPH1 mRNA expression ([3]; azacitidine 300 nM, 2 days on/2 days off over 2 weeks, quantitative RT-PCR): partially restored mRNA expression
DPH1 CpG DNA methylation [4]: reduction in the DPH1 CpG DNA hypermethylation
tagraxofusp-mediated ADP ribosylation after azacitidine ([5]; long-term azacitidine-treated resistant THP1 cells): complete restoration of tagraxofusp-mediated ADP ribosylation activity

Nc1ccn([C@@H]2O[C@H](CO)[C@@H](O)[C@@H]2O)c(=O)n1 [cytarabine]
sensitivity of SL-401 resistant cells to chemotherapy [6]: more sensitive to chemotherapy compared to the parental cells

CC[C@]1(O)C[C@H]2CN(CCc3c([nH]c4ccccc34)[C@@](C(=O)OC)(c3cc4c(cc3OC)N(C=O)[C@H]3[C@@](O)(C(=O)OC)[C@H](OC(C)=O)[C@]5(CC)C=CCN6CC[C@]43[C@@H]65)C2)C1 [vincristine]
sensitivity of SL-401 resistant cells to chemotherapy [6]: more sensitive to chemotherapy compared to the parental cells

B1: tagraxofusp (protein)
chain: MGADDVVDSSKSFVMENFSSYHGTKPGYVDSIQKGIQKPKSGTQGNYDDDWKGFYSTDNKYDAAGYSVDNENPLSGKAGGVVKVTYPGLTKVLALKVDNAETIKKELGLSLTEPLMEQVGTEEFIKRFGDGASRVVLSLPFAEGSSSVEYINNWEQAKALSVELEINFETRGKRGQDAMYEYMAQACAGNRVRRSVGSSLSCINLDWDVIRDKTKTKIESLKEHGPIKNKVISESPNKTVSEEKAKQYLEEFHQTALEHPELSELKTVTGTNPVFAGANYAAWAVNVAQVIDSETADNLEKTTAALSILPGIGSVMGIADGAVHHNTEEIVAQSIALSSLMVAQAIPLVGELVDIGFAAYNFVESIINLFQVVHNSYNRPAYSPGHKTRPHMAPMTQTTSLKTSWVNCSNMIDEIITHLKQPPLPLLDFNNLNGEDQDILMENNLRRPNLEAFNRAVKSLQNASAIESILKNLLPCLPLATAAPTRHPIHIKDGDWNEFRRKLTFYLKTLENAQAQQTTLSLAW
safety [7]: Safety was shown at therapeutically active doses
spleen size [2, 13]: reduction in splenomegaly
splenic infiltration [2, 13]: decreased splenic infiltration of human BPDCN cells
mice remaining at 200 days ([2]; four-arm study, n=10 mice per arm): one
progression-free survival ([2]; one cycle, daily for 5 days, three PDXs combined, vehicle 12 days): 48 days
overall survival ([2]; one cycle, daily for 5 days, three PDXs combined, vehicle 35 days): 71 days
reduction of leukemia burden vs vincristine/dexamethasone ([2]; peripheral blood flow cytometry, most animals): longer sustained reduction in human BPDCN leukemia burden
residual CD45+CD123+ leukemia at 200 days ([2]; peripheral blood, spleen, and bone marrow): detectable leukemia cells in spleen and bone marrow
effect of a second cycle ([2]; second cycle at progression): effective
response of PDX cohorts ([2]; three cohorts, 100 ug/kg/day intraperitoneally x5 days): prolonged progression-free and overall survival
time to progression of peripheral blood leukemia burden ([2]; four-arm study): prolonged the time to progression of peripheral blood leukemia burden
anti-tumor efficacy [8]: in vivo anti-tumor efficacy
cytotoxicity [9]: potently and selectively cytotoxic
SL-401-dependent ADP ribosylation activity [10]: diminished in the SL-401 resistant cells
SL-401-dependent ADP ribosylation activity [11]: diminished in the SL-401 resistant cells
ADP-ribosylation in lysates ([5]; parental cells): caused ADP-ribosylation of a single protein
ADP-ribosylation in lysates ([5]; tagraxofusp-resistant cells): unable to catalyze ADP-ribosylation of any proteins in the lysate

B2: Tagraxofusp-APC: APC-tagged, fluorescently labeled tagraxofusp used for confocal microscopy (conjugate)
chain: MGADDVVDSSKSFVMENFSSYHGTKPGYVDSIQKGIQKPKSGTQGNYDDDWKGFYSTDNKYDAAGYSVDNENPLSGKAGGVVKVTYPGLTKVLALKVDNAETIKKELGLSLTEPLMEQVGTEEFIKRFGDGASRVVLSLPFAEGSSSVEYINNWEQAKALSVELEINFETRGKRGQDAMYEYMAQACAGNRVRRSVGSSLSCINLDWDVIRDKTKTKIESLKEHGPIKNKVISESPNKTVSEEKAKQYLEEFHQTALEHPELSELKTVTGTNPVFAGANYAAWAVNVAQVIDSETADNLEKTTAALSILPGIGSVMGIADGAVHHNTEEIVAQSIALSSLMVAQAIPLVGELVDIGFAAYNFVESIINLFQVVHNSYNRPAYSPGHKTRPHMAPMTQTTSLKTSWVNCSNMIDEIITHLKQPPLPLLDFNNLNGEDQDILMENNLRRPNLEAFNRAVKSLQNASAIESILKNLLPCLPLATAAPTRHPIHIKDGDWNEFRRKLTFYLKTLENAQAQQTTLSLAW
drug internalization [12]: internalized equally in resistant and parental cells
